Experiments:
[1] = molecular target: T1, human WARS1 recombinant protein (human, UniProt P23381 2-471, limits assumed); test: cell-based or functional assay
T1 sequence: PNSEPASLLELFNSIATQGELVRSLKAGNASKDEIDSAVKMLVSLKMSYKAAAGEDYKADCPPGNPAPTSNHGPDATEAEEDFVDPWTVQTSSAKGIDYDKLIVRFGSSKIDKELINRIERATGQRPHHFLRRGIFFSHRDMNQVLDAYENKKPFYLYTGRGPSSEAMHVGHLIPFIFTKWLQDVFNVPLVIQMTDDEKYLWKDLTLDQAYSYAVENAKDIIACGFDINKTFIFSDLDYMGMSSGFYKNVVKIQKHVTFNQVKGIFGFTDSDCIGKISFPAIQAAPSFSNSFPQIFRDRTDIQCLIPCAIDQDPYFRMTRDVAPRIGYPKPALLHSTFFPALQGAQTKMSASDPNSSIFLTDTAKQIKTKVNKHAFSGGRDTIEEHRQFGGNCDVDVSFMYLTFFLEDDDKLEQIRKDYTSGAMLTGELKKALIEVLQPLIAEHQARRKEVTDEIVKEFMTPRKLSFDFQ

[2] = molecular target: T2, rat-derived WARS1 recombinant protein (rat, UniProt Q6P7B0 1-481, limits assumed); test: direct ELISA
T2 construct: Recombinant, His-tagged (detected with anti-His tag antibody); construct not described; also called rat WARS1
T2 sequence (looked up): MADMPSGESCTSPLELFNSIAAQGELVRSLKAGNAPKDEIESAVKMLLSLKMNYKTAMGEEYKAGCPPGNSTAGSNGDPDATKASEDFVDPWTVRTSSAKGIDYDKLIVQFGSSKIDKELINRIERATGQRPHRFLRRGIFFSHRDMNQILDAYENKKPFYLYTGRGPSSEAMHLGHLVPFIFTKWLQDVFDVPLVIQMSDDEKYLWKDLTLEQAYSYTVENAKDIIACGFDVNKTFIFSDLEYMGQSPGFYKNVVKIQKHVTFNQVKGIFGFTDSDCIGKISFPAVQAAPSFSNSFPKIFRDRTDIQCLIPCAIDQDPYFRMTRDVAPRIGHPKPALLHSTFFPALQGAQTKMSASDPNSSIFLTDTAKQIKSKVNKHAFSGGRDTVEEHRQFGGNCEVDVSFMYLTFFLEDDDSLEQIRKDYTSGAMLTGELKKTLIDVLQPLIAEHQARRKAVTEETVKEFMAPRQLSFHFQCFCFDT
Procedure: (§1) Specifically, for direct ELISA, a 96-well plate (Maxisorp, Thermo Fisher) was coated with WARS1 having a 1 μg/ml concentration of a recombinant protein derived from human, marmoset (NHP), mouse, rat, and pig, and then blocked with PBS containing 1% BSA at room temperature for 1 hour. The GKB101 antibody or a variant antibody thereof was diluted in a concentration-dependent manner, added to each coated well, reacted at room temperature for 1 hour, and then washed four times with PBST (PBS+Tween20). Each well was treated and reacted for 1 hour with an antibody (anti-Human IgG, cell signaling) to which HRP is attached, and then washed with PBST. Lastly, after developing with a TMB substrate (BD), its absorbance was measured at 490 nm (NIVO) (FIGS. 4a to 5).

[3] = molecular target: T3, mouse-derived WARS1 recombinant protein (mouse, UniProt P32921 1-481, limits assumed); test: direct ELISA
T3 construct: Recombinant, His-tagged (detected with anti-His tag antibody); construct not described; In the western blot also secreted WARS1 from J774A.1 supernatant and mouse serum; also called mouse WARS1
T3 sequence (looked up): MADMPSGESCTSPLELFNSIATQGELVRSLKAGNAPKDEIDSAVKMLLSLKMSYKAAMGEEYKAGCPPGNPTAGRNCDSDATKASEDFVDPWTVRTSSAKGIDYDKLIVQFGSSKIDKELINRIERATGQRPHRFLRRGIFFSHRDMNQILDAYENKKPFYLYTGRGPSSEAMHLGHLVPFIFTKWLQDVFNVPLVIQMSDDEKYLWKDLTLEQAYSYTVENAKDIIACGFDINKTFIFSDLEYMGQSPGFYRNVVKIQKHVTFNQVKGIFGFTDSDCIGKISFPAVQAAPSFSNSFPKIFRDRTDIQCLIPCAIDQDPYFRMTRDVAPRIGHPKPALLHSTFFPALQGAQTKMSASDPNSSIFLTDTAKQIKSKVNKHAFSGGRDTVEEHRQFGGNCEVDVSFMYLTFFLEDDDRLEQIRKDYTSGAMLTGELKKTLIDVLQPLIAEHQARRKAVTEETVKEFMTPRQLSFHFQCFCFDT
Procedure: as §1

[4] = molecular target: T1, human WARS1 recombinant protein; test: direct ELISA
Procedure: as §1

[5] = molecular target: marmoset (NHP)-derived WARS1 recombinant protein (marmoset (NHP)) (UniProt U3CR73); test: direct ELISA

secretion of TNF-α in mouse macrophage J774A.1 cells [1]: ≥ 40% | Kd [2]: ~1 pM | Kd [3]: ~1 pM | Kd [4]: ~1 pM | Kd [5]: 1 pM
B1: SHL/QLN (antibody, V domains shown)
VH: EVQLLESGGGLVQPGGSLRLSCAASGFTFSSYDMSWVRQAPGKGLEWVSAISSGGSSIYYADSVKGRFTISRDNSKNTLYLQMNSLRAEDTAVYYCARDVAWDMLGDFDYWGQGTLVTVSS
VL: QSVLTQPPSASGTPGQRVTISCTGSSSNIGSNYVYWYQQLPGTAPKLLIYANQLRPSGVPDRFSGSKSGTSASLAISGLRSEDEADYYCGAWDDSNSAYVFGGGTKLTVLT
notes: L-CDR2 and L-CDR3 variant of GKB101; also called SHL/QLN antibody

Reference: US20250289905A1 (MIRIMGENE, published 2025)
